We go through two molecules from patent US6790610B2, “Alzheimer's disease, secretase, APP substrates therefor, and uses therefor” (Pharmacia & Upjohn Company, priority 1998, dated 2004).

Where a SMILES comes first, the peptide text is derived from it. [ ]: non-standard residue; d: D form. The star is where a group is joined. Sta = CC(C)C[C@H](N)[C@@H](O)CC(=O)O; Isovaleryl = CC(C)CC(=O)*

For assay [1], the target named is T1, Recombinant human Asp2(a) (Homo sapiens, UniProt P56817).
T1 construct: made in house; β-octylglucoside membrane extract purified over Mono Q and Mono S
T1 sequence (P56817 46-501): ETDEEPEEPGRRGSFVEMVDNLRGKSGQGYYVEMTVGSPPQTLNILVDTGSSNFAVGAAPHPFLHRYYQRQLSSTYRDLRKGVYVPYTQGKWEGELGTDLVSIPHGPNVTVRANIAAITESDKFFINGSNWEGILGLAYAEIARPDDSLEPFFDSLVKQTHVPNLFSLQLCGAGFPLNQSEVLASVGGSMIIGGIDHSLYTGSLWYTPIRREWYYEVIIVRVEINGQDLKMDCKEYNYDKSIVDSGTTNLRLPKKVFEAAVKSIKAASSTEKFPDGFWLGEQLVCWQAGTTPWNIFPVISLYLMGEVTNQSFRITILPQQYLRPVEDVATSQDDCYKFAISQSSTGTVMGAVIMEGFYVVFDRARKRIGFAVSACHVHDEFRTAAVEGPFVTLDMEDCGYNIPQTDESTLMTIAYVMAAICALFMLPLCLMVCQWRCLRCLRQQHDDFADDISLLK
Briefly: β-Secretase assay with synthetic peptide substrates (RP-HPLC). The class given is biochemical. The procedure: Recombinant human Asp2(a) prepared in CHO cells and purified as described in Example 11 was used to assay Asp2(a) proteolytic activity directly. Activity assays for Asp2(a) were performed using synthetic peptide substrates containing either the wild-type APP β-secretase site (SEVKM ↓DAEFR; SEQ ID NO: 64), the Swedish KM→NL mutation (SEVNL↓DAEFR; SEQ ID NO: 63), or the Aβ40 and 42 γ-secretase sites (RRGGVV↓IA↓TVIVGER; SEQ ID NO: 65). Reactions were performed in 50 mM 2-[N-morpholino]ethane-sulfonate (“Na-MES,” pH 5.5) containing 1% β-octylglucoside, […] peptide substrate, and recombinant Asp2(a) (1-5 μg protein) for various times at 37° C. The reaction products were quantified by RP-HPLC using a linear gradient from 0-70 B over 30 minutes (A=0.1% TFA in water, B=0.1% TFA/10% water/90% AcCN). The elution profile was monitored by absorbance at 214 nm. […] Percent hydrolysis of the peptide substrate was calculated by comparing the integrated peak areas for the two product peptides and the starting material derived from the absorbance at 214 nm. […]
The specificity of the protease cleavage reaction was determined by performing the β-secretase assay in the presence of 8 μM pepstatin A and the presence of a cocktail of protease inhibitors (10 μM leupeptin, 10 μM E64, and 5 mM EDTA). […]

For a further assay, the target named is T2, Hu-Asp2(b) (Homo sapiens, UniProt P56817).
T2 construct: made in house; host or cells: CHO-K1 transfected with pcDNA3.1(+)Hygro/Hu-Asp2(b); β-octylglucoside extract purified over Mono Q and Mono S
T2 sequence (P56817 46-476 isoform P56817-2): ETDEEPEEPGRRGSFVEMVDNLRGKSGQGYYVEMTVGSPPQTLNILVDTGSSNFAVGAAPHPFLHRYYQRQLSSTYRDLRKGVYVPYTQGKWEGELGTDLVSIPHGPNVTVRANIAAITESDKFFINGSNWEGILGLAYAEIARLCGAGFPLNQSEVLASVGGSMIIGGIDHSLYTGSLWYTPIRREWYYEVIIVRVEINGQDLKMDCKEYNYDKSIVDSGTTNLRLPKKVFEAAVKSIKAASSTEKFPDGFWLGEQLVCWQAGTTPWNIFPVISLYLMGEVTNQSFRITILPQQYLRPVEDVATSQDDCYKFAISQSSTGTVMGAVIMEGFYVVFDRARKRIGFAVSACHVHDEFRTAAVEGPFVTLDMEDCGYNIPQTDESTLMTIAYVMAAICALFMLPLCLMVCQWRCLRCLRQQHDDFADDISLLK
Briefly: β-Secretase proteolysis assay with Hu-Asp2(b). The class given is biochemical. Particulars: identical assay conditions to Asp2(a). The method, then: Recombinant human Asp2(a) prepared in CHO cells and purified as described in Example 11 was used to assay Asp2(a) proteolytic activity directly. Activity assays for Asp2(a) were performed using synthetic peptide substrates containing either the wild-type APP β-secretase site (SEVKM ↓DAEFR; SEQ ID NO: 64), the Swedish KM→NL mutation (SEVNL↓DAEFR; SEQ ID NO: 63), or the Aβ40 and 42 γ-secretase sites (RRGGVV↓IA↓TVIVGER; SEQ ID NO: 65). Reactions were performed in 50 mM 2-[N-morpholino]ethane-sulfonate (“Na-MES,” pH 5.5) containing 1% β-octylglucoside, […] peptide substrate, and recombinant Asp2(a) (1-5 μg protein) for various times at 37° C. The reaction products were quantified by RP-HPLC using a linear gradient from 0-70 B over 30 minutes (A=0.1% TFA in water, B=0.1% TFA/10% water/90% AcCN). The elution profile was monitored by absorbance at 214 nm. In preliminary experiments, the two product peaks which eluted before the intact peptide substrate, were confirmed to have the sequence DAEFR (SEQ ID NO: 72)and SEVNL (SEQ.ID NO: 73) using both Edman sequencing and MADLI-TOF mass spectrometry. Percent hydrolysis of the peptide substrate was calculated by comparing the integrated peak areas for the two product peptides and the starting material derived from the absorbance at 214 nm. […]

Take `CC(C)CC(=O)N[C@H](C(=O)N[C@H](C(=O)N[C@@H](CC(C)C)[C@@H](O)CC(=O)N[C@@H](C)C(=O)N[C@@H](CC(C)C)[C@@H](O)CC(=O)O)C(C)C)C(C)C` [pepstatin A] (Isovaleryl-VV[Sta]A[Sta]-OH): the “sensitivity of proteolytic activity to inhibitor” value in assay [1] (8 μM pepstatin A) is given as “insensitive”.

Take “SEVNLDAEFR (OTHER INFORMATION: Description of Artificial Sequence: synthetic) [Swedigh β-secretase peptide, synthetic peptide substrate containing the Swedish KM→NL mutation of the APP β-secretase site]”: the “proteolysis relative to wild type APP peptide” value in assay [1] (after 6 hours, pH 5.5, 37° C.) is reported as “about 10 fold”. The “cleavage of peptide substrate” value with Hu-Asp2(b) was “cleaves”.
